Here are results for 10 molecules from patent US20090169546A1 (published 2009).

T1: recombinant HMG1 produced in E. coli as calmodulin binding protein (CBP) fusion (human)
T1 chain: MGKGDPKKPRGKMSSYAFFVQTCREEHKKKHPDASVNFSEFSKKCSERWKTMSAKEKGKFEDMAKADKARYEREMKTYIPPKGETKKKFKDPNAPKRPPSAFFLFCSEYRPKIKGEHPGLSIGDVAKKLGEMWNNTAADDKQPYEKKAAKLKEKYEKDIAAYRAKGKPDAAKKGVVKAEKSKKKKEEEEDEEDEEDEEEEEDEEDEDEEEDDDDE

T2: native nuclear HMG1 prepared from 293H cells by freeze thaw (human, UniProt P09429 1-215)
T2 sequence (looked up): T1 chain

T3: HMGB1 B-box peptide 91-108 (human, also: biotinylated, site not given here)
T3 peptide: DPNAPKRPPSAFFLFCSE

B1: anti-HMG1 antibody S6 (antibody, V domains shown)
VH: EVQLLESGGGLVQPGGSLRLSCAASGFTFSWYDMSWVRQAPGKGLEWVSRISPSGGYTMYADSVKGRFTISRDNSKNTLYLQMNSLRAEDTAVYYCARLEVGATSGGTAFDIWGQGTMVTVSS
VL: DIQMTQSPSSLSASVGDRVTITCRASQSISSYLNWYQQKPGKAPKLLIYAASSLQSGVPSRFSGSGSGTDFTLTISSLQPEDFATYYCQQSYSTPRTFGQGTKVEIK
notes: also called ATCC PTA-6143
B2: anti-HMG1 antibody G16 (antibody, V domains shown)
VH: EVQLLESGGGLVQPGGSLRLSCAASGFTFSWYKMTWVRQAPGKGLEWVSSISPSGGFTSYADSVKGRFTISRDNSKNTLYLQMNSLRAEDTAVYYCARDLDIRHAFDIWGQGTMVTVSS
VL: DIQMTQSPGTLSLSPGESGTLSCRASESVSSRHFAWYQQKPGQAPRLLIYGASSRPTGIPDRFSGSGSGTDFTLTLSRLEPEDFAVYFCQYYGSSPYTFGGGTKVEMK
B3: anti-HMG1 antibody G9 (antibody, V domains shown)
VH: EVQLLESGGGLVQPGGSLRLSCAASGFTFSSYDMFWVRQAPGKGLEWVSRISPSGGYTYYADSVKGRFTISRDNSKNTLYLQMNSLRAEDTAVYYCARLRYFDSRGYAFDIWGQGTMVTVSS
VL: DIQMTQSPGTLSLSPGERATLSCRASQSVRSSYLAWYQQKPGQAPRLLIYGASTRATGIPDRFSGSGSGTDFTLTISRLEPEDFAVYYCQQYGTSRWTFGQGTKVEIK
B4: anti-HMG1 antibody G34 (antibody, V domains shown)
VH: EVQLLESGGGLVQPGGSLRLSCAASGFTFSHYMMGWVRQAPGKGLEWVSRISPSGGGTVYADSVKGRFTISRDNSKNTLYLQMNSLRAEDTAVYYCARGGNWNYISYYYYYLDVWGKGTTVTVSS
VL: DIQMTQSPSSLSASVGDRVAITCRASQSIDTYLNWYQQKPGKAPKLLIYAASKLEDGVPSRFSGSGTGTDFTLTIRSLQPEDFASYFCQQSYSSPGITFGPGTKVEIK
B5: anti-HMG1 antibody S2 (antibody, V domains shown)
VH: EVQLLESGGGLVQPGGSLRLSCAASGFTFSGYMMVWVRQAPGKGLEWVSRISPSGGQTGYADSVKGRFTISRDNSKNTLYLQMNSLRAEDTAVYYCAREEGGSYGAFDIWGQGTMVTVSS
VL: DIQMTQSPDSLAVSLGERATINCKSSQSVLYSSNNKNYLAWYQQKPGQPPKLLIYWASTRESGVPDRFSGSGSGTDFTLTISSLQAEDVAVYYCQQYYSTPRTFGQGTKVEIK
notes: also called ATCC PTA-6142
B6: anti-HMG1 antibody S10 (antibody, V domains shown)
VH: EVQLLESGGGLVQPGGSLRLSCAASGFTFSWYDMWWVRQAPGKGLEWVSWIVPSGGITAYADSVKGRFTISRDNSKNTLYLQMNSLRAEDTATYYCARGNYGPSPFDYWGQGTLVTVSS
VL: DIQMTQSPGTLSLSPGERATLSCRATQSVRKNFLAWYQQKPGQAPRLLIYDASSRATGIPDRFSGSGSGTDFTLTISRLEPEDFAVYYCQQYGNSPIIFGQGTRLEIK
B7: anti-HMG1 antibody S16 (antibody, V domains shown)
VH: EVQLLESGGGLVQPGGSLRLSCAASGFTFSWYSMLWVRQAPGKGLEWVSYISPSGGFTNYADSVKGRFTISRDNSKNTLYLQMNSLRAEDTAVYYCARWDYNSGWYYDHWGQGTLVTVSS
VL: DIQMTQSPDTLSLSPGERATLSCRASQSVNSRNLAWYQQKPGQAPRLLIYGASTRATGIPDRFSGSVSGTEFTLTISSLQPDDFATYYCQQYNSYFTFGQGTKLEIK
notes: also called ATCC PTA-6259
B8: anti-HMG1 antibody G35 (antibody, V domains shown)
VH: EVQLLESGGGLVQPGGSLRLSCAASGFTFSWYKMVWVRQAPGKGLEWVSSIVPSGGITIYADSVKGRFTISRDNSKNTLYLQMNSLRAEDTAVYYCARVQQWLGRPYFDYWGQGTLVTVSS
VL: DIQMTQSPLSLPVTPGEPASISCRSSQSLLHGNGYNYLDWYLQRPGQSPQLLIYSGSNRASGVPDRFSGSGSGTDFTLKISRVEAEDVGVYYCMQSLQSRTFGQGTKVEIK
B9: anti-HMG1 antibody S14 (antibody, V domains shown)
VH: EVQLLESGGGLVQPGGSLRLSCAASGFTFSWYETGWVRQAPGKGLEWVSGISPSGGYTQYADSVKGRFTISRDNSKNTLYLQMNSLRAEDTAVYYCARSGVGATKIFDYWGQGTLVTVSS
VL: DIQMTQSPSSLSASVGDRVTIICRANERINTYLNWYQQKPGKAPKLLISGTSSLESGVPSRFSGSGSGTEFTLSISSLQPEDFASYYCQQSYSSPYTFGQGTNLEIR
B10: anti-HMG1 antibody G12 (antibody, V domains shown)
VH: EVQLLESGGGLVQPGGSLRLSCAASGFTFSYYMMTWVRQAPGKGLEWVSSISPSGGYTIYADSAKGRFTISRDNSKNTLYLQMNSLRAEDTAVYYCARALSTGSFWDYWGQGTLVTVSS
VL: DIQMTQSPGTLSLSPGERATLSCRASESLTSTYVAWYQHKPGQAPRLLIHGGSTRATGIPVRFSGSGSGTDFTLTIATLEPEDFAVYYCQQYGSSPYTFGQGTKLEIK

No end group written: not given here. Bounds are passed on as bounds.

In one assay the target is T1, recombinant HMG1 produced in E. coli as …. Nature of the assay: BIAcore 3000; mAb amine-coupled to CM5, HMG1 injected in two-fold dilutions; steady-state model. As to the method:
HMG1 Binding Affinity via BIAcore Analysis: All experiments were performed on a BIAcore 3000 instrument (BIAcore, Inc., Piscataway, N.J.). Briefly, each mAb was immobilized to a CM5 sensor chip using a standard amine coupling chemistry. Separately a reference (control) flow cell was also prepared. Two-fold, serial dilutions of HMG1 in instrument buffer were sequentially injected at a slow flow rate over the individual mAb and reference flow-cell surfaces. Following the binding and dissociation of HMG1, the mAbs surfaces were regenerated with a brief pulse of 1M NaCl-50 mM NaOH. At the end of each experiment, the binding curves were evaluated using a steady-state model available through the BIAevaluation software supplied by BIAcore, Inc. (Piscataway, N.J.).
Regarding B1, the Kd is 39 nM.
Turning to B2, the Kd was 22 nM.
On the same count and under the same terms, the result for B3 reads 125 nM; that for B4, 67 nM; that for B5, 36 nM.
Still for that read-out and setting: next, B6: 54 nM; B7: 23 nM.
On the same count and under the same terms, the result for B8 reads 242 nM.
As to B9, the dissociation constant Kd came out at 205 nM.
On the same count and under the same terms, the result for B10 reads 73 nM.

The target is the same in another assay. Put plainly: cell-based or functional assay.
For the molecule B1, the “IC50, inhibition of HMG1 stimulated NO release from macrophages” value came to 4.15 µg/mL; the “IC50, inhibition of rHMG1 stimulated IL-1β release from human PBMCs” value stood at 0.0232 µg/mL; the “IC50, inhibition of rHMG1 stimulated IL-6 release from human PBMCs” value worked out at 0.174 nM; the “IC50, inhibition of rHMG1 stimulated TNF-α release from human PBMCs” value is 0.0182 µg/mL.
Take B2: the “IC50, inhibition of HMG1 stimulated NO release from macrophages” value was 22 µg/mL and the “IC50, inhibition of rHMG1 stimulated IL-6 release from human PBMCs” value amounted to 1.06 nM.
On to B3, for which the “IC50, inhibition of rHMG1 stimulated IL-1β release from human PBMCs” value turned out to be 0.211 µg/mL; the “IC50, inhibition of rHMG1 stimulated IL-6 release from human PBMCs” value was 0.246 nM; the “IC50, inhibition of rHMG1 stimulated TNF-α release from human PBMCs” value turned out to be 0.248 µg/mL.
As to B4, the “IC50, inhibition of rHMG1 stimulated IL-6 release from human PBMCs” value turned out to be 0.858 nM.
B5: the “IC50, inhibition of rHMG1 stimulated IL-1β release from human PBMCs” value was determined as 0.22 µg/mL; the “IC50, inhibition of rHMG1 stimulated IL-6 release from human PBMCs” value came to 0.163 nM; the “IC50, inhibition of rHMG1 stimulated TNF-α release from human PBMCs” value was found to be 0.0642 µg/mL.
Consider B6, for which the “IC50, inhibition of rHMG1 stimulated IL-1β release from human PBMCs” value was determined as 2.59 µg/mL; the “IC50, inhibition of rHMG1 stimulated IL-6 release from human PBMCs” value is 0.324 nM; the “IC50, inhibition of rHMG1 stimulated IL-12 release from human PBMCs” value came out at 1.13 µg/mL; the “IC50, inhibition of rHMG1 stimulated TNF-α release from human PBMCs” value was 0.875 µg/mL.
As to B7, the “IC50, inhibition of rHMG1 stimulated IL-1β release from human PBMCs” value was found to be 6.05 µg/mL; the “IC50, inhibition of rHMG1 stimulated IL-6 release from human PBMCs” value stood at 0.56 nM; the “IC50, inhibition of rHMG1 stimulated IL-12 release from human PBMCs” value stood at 1.24 µg/mL; the “IC50, inhibition of rHMG1 stimulated TNF-α release from human PBMCs” value is 1.44 µg/mL.
Take B8: the “IC50, inhibition of rHMG1 stimulated IL-6 release from human PBMCs” value was 0.564 nM.
As for B9, the “IC50, inhibition of rHMG1 stimulated IL-1β release from human PBMCs” value was 0.0678 µg/mL; the “IC50, inhibition of rHMG1 stimulated IL-6 release from human PBMCs” value turned out to be 0.191 nM; the “IC50, inhibition of rHMG1 stimulated TNF-α release from human PBMCs” value stood at 0.0662 µg/mL.
On to B10, for which the “IC50, inhibition of rHMG1 stimulated IL-1β release from human PBMCs” value worked out at 5.91 µg/mL; the “IC50, inhibition of rHMG1 stimulated IL-6 release from human PBMCs” value is 1.12 nM; the “IC50, inhibition of rHMG1 stimulated IL-12 release from human PBMCs” value turned out to be 2.79 µg/mL; the “IC50, inhibition of rHMG1 stimulated TNF-α release from human PBMCs” value amounted to 0.796 µg/mL.

The target is the same in the next assay. Put plainly: ELISA; HMGB1 preincubated with antibody, then added to immobilised RAGE-Fc. The method, then:
HMG1 binding to RAGE-Ig by ELISA: 50 μl/well of RAGE-Fc fusion protein at 5 μg/ml in PBS was added to each well of an ELISA plate and incubated overnight at 4° C. The plate was then blocked with 200 μl of 5% milk at 37° C. for 1 hr and washed 3× with PBS/Tween. 50 μl/well of diluted HMGB1 solution. For dose curves, HMGB1 concentrations started at 4 ug/ml in PBS. For antibody blocking the HMGB1 was preincubated in another plate with human anti-HMG1 antibodies or buffer, then transferred to the RAGE-coated plate. The plates were then incubated at room temperature for 2 hours and washed 3×. To detect any HMG1 bound to the immobilized RAGE-Fc a mixture of biotinylated mouse anti-HMG1 mAbs (10D4, 4H11, 3E10 and 5C12) each at 1 ug/ml, total Ab: 4 ug/ml, were added to each well and the plate was incubated for 1 hour at room temperature. The plate was then washed and Strepavidin-HPR was added to each well and incubated 15 min. The plate was then washed 3× and blotted dry. 100 μl of TMB developing agent was added and the plate read at 650 nm. Values were calculated as percent of inhibition with HMG1 alone equal to 0% inhibition. The data in FIG. 9 and summarized in Table 1 represent the average of two separate experiments.
For B1, the “percent inhibition of HMG1 binding to RAGE” value was at least 35%.
On the same count and under the same terms, next, B5: at least 35%; B6: at least 35%; B7: at least 35%.

A further assay concerns the target T2, native nuclear HMG1 prepared from 293H …. Nature of the assay: HMG1 capture (sandwich) ELISA, FIG. 4B. The method, then: Sandwich ELISA (soluble HMG1): Immunoplates (EIA/RIA plate, High binding, Costar) were coated with anti human IgG Fc at 10 μg/ml in PBS (pH 7.2) and incubated at 4° C. overnight. The coating reagent was removed and the plates were rinsed briefly with PBS. The plates were then blocked with 4% milk for 1 hour at 37° C. and rinsed with PBS. The anti-HMG1 antibodies were diluted in 4% milk. For serial dilutions, the antibodies were used at a starting concentration of 20 μg/ml. The diluted anti-HMG1 antibodies were then added into plate and incubated for 1 hr at 37° C. The plate was then washed 10 times with PBST (PBS/0.1% tween 20) and incubate with antigen (HMGB1, 2 μg/ml; or 0.7 μg/ml for native HMGB1) in 4% milk and incubated at 37° C. for 1 h. The plate was then wash 10 times and incubated with mouse anti-HMGB1, 1 μg/ml in 4% milk at 37° C. for 1 h. The plate was washed 10 times and incubated with anti-mouse IgG-HRP at 1:1000 at 37° C. for 1 h. The plate was then washed and developed. HRP activity was detected with Sureblue HRP substrate (KPL). Plates were read at 450 nm using a Kinetic Microplate Reader (Molecular Devices).
As for B5, the binding result is on record as “binds”.
The same measure, in the same setting: the result for B6 reads “binds”.

The next assay has as its target T3, HMGB1 B-box peptide 91-108. Nature of the assay: ELISA on biotinylated peptides captured on avidin. As to the method:
The plate was then blocked with 4% milk powder dissolved in PBS at 37° C. for 1 hour. The blocking solution was removed and replaced with human anti-HMG1 antibodies at various concentrations (see FIGS. 5A-B). […] HRP activity was detected with Sureblue HRP substrate (KPL). Plates were read at 450 nm using a Kinetic Microplate Reader (Molecular Devices). […] After washing and blocking with 1% BSA in PBS, the biotinylated peptides were individually added into the avidin coated wells and incubated for 30 min at room temperature. The serial diluted antibody G4, S16 and S6 at the initial concentration at 10 μg/ml were then transferred into the wells followed by adding mouse anti human IgG-HRP conjugate (Pierce). Detection was accomplished by adding 50 μl of tetramethylbenzidine (TMB) substrate (KPL) and the absorbance was read at 450 nm.
For B7, the binding result is given as “binds”.
